In patent US20120189541A1 (AbbVie / Abbott, published 2012):

T1: Recombinant Human IL-1α (human, UniProt P01583 113-271)
T1 sequence (looked up): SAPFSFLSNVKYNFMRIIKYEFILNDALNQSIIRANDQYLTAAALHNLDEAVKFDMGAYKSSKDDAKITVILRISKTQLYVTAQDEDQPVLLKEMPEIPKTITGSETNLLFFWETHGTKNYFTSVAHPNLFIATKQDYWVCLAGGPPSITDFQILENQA

T2: Cynomolgus IL-1β (cynomolgus, UniProt P79182 117-268, limits assumed)
T2 sequence (looked up): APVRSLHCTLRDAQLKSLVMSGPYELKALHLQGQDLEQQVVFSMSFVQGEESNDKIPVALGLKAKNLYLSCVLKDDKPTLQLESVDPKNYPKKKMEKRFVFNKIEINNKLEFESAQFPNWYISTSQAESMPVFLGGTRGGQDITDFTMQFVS

T3: Cynomolgus IL-1α (cynomolgus, UniProt P79340 113-271, limits assumed)
T3 sequence (looked up): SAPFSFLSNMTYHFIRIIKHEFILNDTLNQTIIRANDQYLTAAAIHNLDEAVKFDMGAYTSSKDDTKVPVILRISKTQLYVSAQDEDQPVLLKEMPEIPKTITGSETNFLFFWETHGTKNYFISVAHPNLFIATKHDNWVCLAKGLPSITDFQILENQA


Assays:
Recombinant Human IL-1α [1] = molecular target: T1, Recombinant Human IL-1α; assay: cell-based or functional assay
Cynomolgus IL-1β = molecular target: T2, Cynomolgus IL-1β; assay: cell-based or functional assay
Cynomolgus IL-1α [2] = molecular target: T3, Cynomolgus IL-1α; assay: cell-based or functional assay
Recombinant Human IL-1β [3] = molecular target: T4, Recombinant Human IL-1β (human, UniProt P01584 117-269); assay: SPR (BIACORE), human antigen
T4 construct: Bought recombinant protein; Biotinylated in the capture ELISA; also called hIL-1β; IL-1 beta
Experimental: (§1) The BIACORE assay (Biacore, Inc, Piscataway, N.J.) determines the affinity of antibodies or DVD-Ig molecule with kinetic measurements of on-rate and off-rate constants. Binding of antibodies or DVD-Ig molecule to a target antigen (for example, a purified recombinant target antigen) is determined by surface plasmon resonance-based measurements with a Biacore® 1000 or 3000 instrument (Biacore® AB, Uppsala, Sweden) using running HBS-EP (10 mM HEPES [pH 7.4], 150 mM NaCl, 3 mM EDTA, and 0.005% surfactant P20) at 25° C. All chemicals are obtained from Biacore® AB (Uppsala, Sweden) or otherwise from a different source as described in the text. For example, approximately 5000 RU of goat anti-mouse IgG, (Fcγ), fragment specific polyclonal antibody (Pierce Biotechnology Inc, Rockford, Ill.) diluted in 10 mM sodium acetate (pH 4.5) is directly immobilized across a CM5 research grade biosensor chip using a standard amine coupling kit according to manufacturer's instructions and procedures at 25 μg/ml. Unreacted moieties on the biosensor surface are blocked with ethanolamine. Modified carboxymethyl dextran surface in flowcell 2 and 4 is used as a reaction surface. Unmodified carboxymethyl dextran without goat anti-mouse IgG in flow cell 1 and 3 is used as the reference surface. For kinetic analysis, rate equations derived from the 1:1 Langmuir binding model are fitted simultaneously to association and dissociation phases of all eight injections (using global fit analysis) with the use of Biaevaluation 4.0.1 software. Purified antibodies or DVD-Ig molecule are diluted in HEPES-buffered saline for capture across goat anti-mouse IgG specific reaction surfaces. Antibodies or DVD-Ig molecule to be captured as a ligand (25 μg/ml) are injected over reaction matrices at a flow rate of 5 μl/min. The association and dissociation rate constants, kₒₙ (M⁻¹s⁻¹) and koff (s⁻¹) are determined under a continuous flow rate of 25 μl/minute. Rate constants are derived by making kinetic binding measurements at different antigen concentrations ranging from 10-200 nM. The equilibrium dissociation constant (M) of the reaction between antibodies or DVD-Ig molecules and the target antigen is then calculated from the kinetic rate constants by the following formula: KD=koff/kₒₙ. Binding is recorded as a function of time and kinetic rate constants are calculated.

Recombinant Human IL-1α [4] = molecular target: T1, Recombinant Human IL-1α; assay: SPR (BIACORE), human antigen
Experimental: as §1

Recombinant Human IL-1β [5] = molecular target: T4, Recombinant Human IL-1β; assay: cell-based or functional assay
Recombinant Human IL-1α [6] = molecular target: T1, Recombinant Human IL-1α; assay: capture ELISA: antibody captured by anti-human Fc, biotinylated antigen titrated
Experimental: (§2) Plates were washed five times in washing buffer (PBS containing 0.05% Tween 20) and blocked for 1 hour at 25° C. with 200 μl per well superblock blocking buffer (Thermo scientific, #37515). Blocking buffer was removed, and 2 μg/ml of each antibody or DVD-Ig molecule in PBS containing 10% superblock, 0.5% Tween-20 was added to the wells at 100 μl per well and incubated at 25° C. for 1 hour. The wells were washed five times in 1×PBST, and 1 μg/ml biotinylated antigen was titrated at 1:6 serial dilutions (for a range of μg to pg in PBS containing 10% superblock, 0.05% tween 20). Each dilution of antigen was then added to the plates and incubated for 1 hour at 25° C. The wells were washed five times in 1×PBST and incubated for 1 hour at 25° C. with polyHRP streptavidin (KPL #474-3000, Gaithersburg, Md.). The wells were washed five times in 1×PBST, and 100 μl of ULTRA-TMB ELISA (Pierce, Rockford, Ill.) were added per well. Following color development the reaction was stopped with 1N HCL and absorbance at 450 nm is measured.

Cynomolgus IL-1α [7] = molecular target: T3, Cynomolgus IL-1α; assay: SPR (BIACORE), cynomolgus antigen
Recombinant Human IL-1β [8] = molecular target: T4, Recombinant Human IL-1β; assay: capture ELISA: antibody captured by anti-human Fc, biotinylated antigen titrated
Experimental: as §2

Human IL-1α Neutralization Assay EC50 (IL-1 induced hIL-8, MRC-5 cells) (Recombinant Human IL-1α [1]) [nM]	Cyno IL-1β Neutralization Assay EC50 (IL-1 induced hIL-8, MRC-5 cells) (Cynomolgus IL-1β) [nM]	Cyno IL-1α Neutralization Assay EC50 (IL-1 induced hIL-8, MRC-5 cells) (Cynomolgus IL-1α [2]) [nM]	Kd (Recombinant Human IL-1β [3]) [nM]	koff (Recombinant Human IL-1β [3]) [s⁻¹]	kon (Recombinant Human IL-1β [3]) [M⁻¹ s⁻¹]	Kd (Recombinant Human IL-1α [4]) [nM]	koff (Recombinant Human IL-1α [4]) [s⁻¹]	kon (Recombinant Human IL-1α [4]) [M⁻¹ s⁻¹]	Human IL-1β Neutralization Assay EC50 (IL-1 induced hIL-8, MRC-5 cells) (Recombinant Human IL-1β [5]) [nM]	EC50 (Recombinant Human IL-1α [6]) [nM]	Kd (Cynomolgus IL-1α [7]) [nM]	koff (Cynomolgus IL-1α [7]) [s⁻¹]	kon (Cynomolgus IL-1α [7]) [M⁻¹ s⁻¹]	EC50 (Recombinant Human IL-1β [8]) [nM]	Binder
0.0538	0.0056	0.0626	0.0161	2.65e-05	1.66e+06	0.569	3.25e-05	56900	0.0099						E26.13-SS-3D12.10/15 (bispecific antibody, human IgG1, kappa, L234A L235A, DVD-Ig, outer (N-terminal) domain anti-IL-1β, inner domain anti-IL-1α, short linkers) heavy: not shown light: DIQMTQSPSSLSASVGDRVTITCRASGNIHNYLTWYQQTPGKAPKLLIYNAKTLADGVPSRFSGSGSGTDYTFTISSLQPEDIATYYCQHFWSIPYTFGQGTKLQITRTVAAPDIQMTQSPSSLSASVGDRVTITCRASQDISNMLNWYQQKPGKTPKLLIYYTSRLYPGVPSRFSGSGSGTDYTFTISSLQPEDIATYFCQQGKTLPYAFGQGTKLEIKRTVAAPSVFIFPPSDEQLKSGTASVVCLLNNFYPREAKVQWKVDNALQSGNSQESVTEQDSKDSTYSLSSTLTLSKADYEKHKVYACEVTHQGLSSPVTKSFNRGEC
0.0479	0.0121	0.081	0.00611	7.85e-06	1.28e+06	0.403	2.34e-05	58100	0.002						E26.35-SS-3D12.10/15 (bispecific antibody, human IgG1, kappa, L234A L235A, DVD-Ig, outer domain anti-IL-1β, inner domain anti-IL-1α, short linkers) heavy: not shown light: DIQMTQSPSSLSASVGDRVTITCRASGNIHNYLTWYQQTPGKAPKLLIYNAKTLADGVPSRFSGSGSGTDYTFTISSLQPEDIATYYCQHFWSIPYTFGQGTKLQITRTVAAPDIQMTQSPSSLSASVGDRVTITCRASQDISNMLNWYQQKPGKTPKLLIYYTSRLYPGVPSRFSGSGSGTDYTFTISSLQPEDIATYFCQQGKTLPYAFGQGTKLEIKRTVAAPSVFIFPPSDEQLKSGTASVVCLLNNFYPREAKVQWKVDNALQSGNSQESVTEQDSKDSTYSLSSTLTLSKADYEKHKVYACEVTHQGLSSPVTKSFNRGEC
0.0057		0.0126				0.115	4.1e-05	355000		0.007	0.0578	2.25e-05	389000		3D12.10/15 (antibody, human IgG1, kappa, L234A L235A, V domains shown, Parent anti-IL-1α antibody; also called 3D12 10/15VH; 3D12 10/15VL) VH: EVQLVQSGAEVKKPGVSVKVSCKASGYTFTTYGMHWVRQAPGQGLEWMGWINTYTGESTYADDFQGRVTFTLDTSTSTAYMELSSLRSEDTAVYFCARGIYYYGSSYAMNYWGQGTTVTVSS VL: DIQMTQSPSSLSASVGDRVTITCRASQDISNMLNWYQQKPGKTPKLLIYYTSRLYPGVPSRFSGSGSGTDYTFTISSLQPEDIATYFCQQGKTLPYAFGQGTKLEIKR
0.00056		0.0008				0.031	2.77e-05	900000		0.072					3D12r16 (antibody, human IgG1, kappa, L234A L235A, V domains shown, Parent anti-IL-1α antibody; also called 3D12r16VH; 3D12r16VL) VH: EVQLVQSGAEVKKPGASVKVSCKASGYTFKYYGMNWVRQAPGQGLERMGWINTYTGQSTYADDFKGRVTFTLDTSTSTAYMELSSLRSEDTAVYYCARDIYYYGSDFAMDYWGQGTTVTVSS VL: DIQMTQSPSSLSASVGDRVTITCRASQDISNMLNWYQQKPGKAPKLLIYYTSRLKPGVPSRFSGSGSGTDYTFTISSLQPEDIATYFCQQGKTAPYTFGQGTKLEIKR
						1.35	0.00274	2.04e+06		0.028					3D12.8 (antibody, human IgG1, kappa, L234A L235A, V domains shown, Parent anti-IL-1α antibody; also called 3D12.8VH; 3D12.8VL) VH: EIQLVQSGSELKKPGASVKVSCKASGYTFTNYGMNWVRQAPGQDLERMAWINTYTGESTYADDFKGRFVFSLDTSVSTAYLQISSLKAEDTAVYFCARGIYYYGSSYAMDYWGQGTTVTVSS VL: DIQMTQSPSSLSASVGDRVTITCRASQDISNCLNWYQQKPGKTPKLLIYYTSRLHSGVPSRFSGSGSGTDYTFTISSLQPEDIATYFCQQGKTLPYAFGQGTKLEIKR
						2.09	0.00253	1.21e+06		0.01					3D12.16 (antibody, human IgG1, kappa, L234A L235A, V domains shown, Parent anti-IL-1α antibody; also called 3D12.16VH; 3D12.16VL) VH: EIQLVQSGAEVKKPGASVKVSCKASGYTFTNYGMNWVRQAPGQDLERMAWINTYTGESTYADDFKGRFTFTLDTSTSTAYMELSSLRSEDTAVYFCARGIYYYGSSYAMDYWGQGTTVTVSS VL: DIQMTQSPSSLSASVGDRVTITCRASQDISNCLNWYQQKPGKTPKLLIYYTSRLHSGVPSRFSGSGSGTDYTFTISSLQPEDIATYFCQQGKTLPYAFGQGTKLEIKR
			0.186	0.00103	5.55e+06				0.15					0.0399	1B12.1 (antibody, human IgG1, kappa, L234A L235A, V domains shown, Parent anti-IL-1β antibody; also called 1B12.1VH; 1B12.1VL) VH: EVQLQESGPGLVKPSETLSLTCTVSGFSLSDYGVSWIRQPPGKGLEWLGLIWGGGDTYYNSPLKSRLTISKDNSKSQVSLKLSSVTAADTAVYYCAKQRTLWGYDLYGMDYWGQGTLVTVSS VL: DTQVTQSPSSLSASVGDRVTITCITSTDIDVDMNWYQQKPGKPPKLLISQGNTLRPGVPSRFSSSGSGTDFTFTISSLQPEDFATYYCLQSDNLPLTFGQGTKLEIKR
			0.202	0.00125	6.2e+06				0.38					0.0459	1B12.6 (antibody, human IgG1, kappa, L234A L235A, V domains shown, Parent anti-IL-1β antibody; also called 1B12.6VH; 1B12.6VL) VH: EVQLVESGGGLVQPGGSLRLSCAVSGFTLSDYGVSWIRQAPGKGLEWLGLIWGGGDTYYNSPLKSRLTISKDNSKSTVYLQMNSLRAEDTAVYYCAKQRTLWGYDLYGMDYWGQGTLVTVSS VL: ETTVTQSPSSLSASVGDRVTITCITSTDIDVDMNWYQQKPGKPPKLLISQGNTLRPGVPSRFSSSGSGTDFTFTISSLQPEDFATYYCLQSDNLPLTFGQGTKLEIKR
			0.206	0.00118	5.73e+06				0.3					0.0438	1B12.3 (antibody, human IgG1, kappa, L234A L235A, V domains shown, Parent anti-IL-1β antibody; also called 1B12.3VH; 1B12.3VL) VH: EVQLQESGPGLVKPSETLSLTCTVSGFSLSDYGVSWIRQPPGKGLEWLGLIWGGGDTYYNSPLKSRLTISKDNSKSQVSLKLSSVTAADTAVYYCAKQRTLWGYDLYGMDYWGQGTLVTVSS VL: DTVVTQSPAFLSVTPGEKVTITCITSTDIDVDMNWYQQKPDQPPKLLISQGNTLRPGVPSRFSSSGSGTDFTFTISSLEAEDAATYYCLQSDNLPLTFGQGTKLEIKR
